The source of these data is publication PMC4565553.

Residue numbers refer to the chain shown, from its start.

Holding throughout (test): BLI; label-free in vitro kinetics assay; FLAG-tagged IPS1 CARD (2.5 μg/mL) immobilised on anti-FLAG probes; RLR CARDs at 0.001–100 μM in 1x Kinetics Buffer (ForteBio) with BSA, pH 7.0; 60 min association, 60 min dissociation; Kd = half-maximal steady-state binding, Km = half-maximal initial binding rate, one-site fit, 3 replicates; no ubiquitin
(In general: BLI is a label-free optical method that tracks binding on a fibre tip over time.)

The target in assay [1] is B. floridae IPS1 CARD (Branchiostoma floridae).
Assay [2] has as its target human IPS1 CARD (1–92), FLAG-tagged (human) (UniProt Q7Z434).
In assay [3] the target is mutant human IPS1 CARD (Arg66,67—Glu), FLAG-tagged (human) (UniProt Q7Z434).

As to “B. floridae RIG-I CARD1+2 (domain or fragment)”, in assay [1], the fold lower Kd than the negative control (human CASP9 CARD) was 5.4 fold and the fold lower Km than the negative control (human CASP9 CARD) was determined as 6.1 fold.

B1: human RIG-I CARD1 (1–87) (domain or fragment)
chain: MTTEQRRSLQAFQDYIRKTLDPTYILSYMAPWFREEEVQYIQAEKNNKGPMEAATLFLKFLLELQEEGWFRGFLDALDHAGYSGLYE
On to B1, for which, in assay [2], the Kd (in general, the equilibrium constant for the complex coming apart) turned out to be 33.1 nM; the Km (half-maximal initial binding rate) came to 0.0389 µM; the fold stronger binding than human caspase9 CARD (negative control) was determined as 70 fold. In assay [3], this molecule displayed a fold increase in Kd against wild-type IPS1 CARD of 34.6 fold and a fold increase in Km against wild-type IPS1 CARD of 43.8 fold.

B2: mutant human RIG-I CARD1 (Glu66,67—Arg) (domain or fragment)
chain: B1 chain with E66R, E67R
As for B2, in assay [2], the fold increase in Kd against wild-type RIG-I CARD1 was 10 fold and the fold increase in Km against wild-type RIG-I CARD1 is 6.9 fold.

B3: human MDA5 CARD1 (1–96) (domain or fragment)
chain: MSNGYSTDENFRYLISCFRARVKMYIQVEPVLDYLTFLPAEVKEQIQRTVATSGNMQAVELLLSTLEKGVWHLGWTREFVEALRRTGSPLAARYMN
As to B3, in assay [2], the Kd is 813 nM and the Km (half-maximal initial binding rate) was 0.55 µM.
